# From paper PMC6222199 (Journal of Bacteriology, 2018)
# B1: RR_1586 (response regulator encoded by CDR20291_1586), wild type, unphosphorylated (natural protein, Clostridioides difficile R20291, UniProt A0A9R0BKD1 1-223, looked up)
# chain: MKVLIVEDNKILLESVVEELSKHFETEKCEDGEEALYLVNQNIYDLVILDLMLPNINGFDILKKMRVNNIDTPVLILTAKETLDDKVEAFTIGANDYLTKPFYMEELVARVYAILRTNGKIKERNGLEFKSLYLDTLEKRVYIEKEEIKLQNKQFNLLEYFVLNKGSILLKEQIYDRIWGIDSDATIEIVEVYVSNLRKKLSKYGYDKYIKTKRKVGYIFDDK
# notes: also called apo-RR_1586; wild-type RR_1586
# B2: phosphorylated RR_1586 (wild type treated with phosphoramidate) (natural protein, Clostridioides difficile R20291, UniProt A0A9R0BKD1 1-223, looked up)
# chain: B1 chain
# notes: also called phospho-RR_1586
# Columns and labels:
# [1] = molecular target: the molecule itself; test: SEC-MALS; MiniDawn Treos MALS in line with a Superdex 200 Increase SEC column; without phosphoramidate
# [2] = molecular target: the molecule itself; test: SEC-MALS; MiniDawn Treos MALS in line with a Superdex 200 Increase SEC column; with the phosphoryl donor phosphoramidate (50 uM protein with 50 mM phosphoramidate in 20 mM Tris pH 8, 50 mM NaCl, 10 mM MgCl2, 10 min, room temperature)
Protein,stoichiometry N [1],stoichiometry N [2]
B1,2,–
B2,–,4
